Results: PMC3075949

Assays:
[1] = biological target: Rh gH/gL-YFPC (rhesus lymphocryptovirus (Rh-LCV)); assay: split reporter
[2] = biological target: EBV gH/gL-YFPC (Epstein-Barr virus (EBV)) (UniProt P03231); assay: split reporter

Substance	% YFP cells of cells stained for gB and gH/gL [1] [%]	% YFP cells of cells stained for gB and gH/gL [2] [%]
EBV gB-YFPN (from UniProt P03188 22-857) (natural protein)	68	
EBV/Rh (456-628) gB-YFPN (from UniProt P03188 22-450; P03188 624-857)	72	93
EBV/Rh (456-807) gB-YFPN (from UniProt P03188 22-450; P03188 801-857)	79	
EBV/Rh (628-807) gB-YFPN (from UniProt P03188 22-622; P03188 801-857)	59	
